Holding throughout (assay): co-IP
In assay [1] the target is β2m-assembled HA-HLA-C*05:01 (human | human (endogenous in HeLa)).
The target of assay [2] is β2m-assembled HA-HLA-C*07:02 (human | human (endogenous in HeLa)).
The target of assay [3] is β2m-assembled HA-HLA-G*01:01 (human | human (endogenous in HeLa)).

B1: HCMV glycoprotein US10, untagged, transiently expressed (natural protein)
chain: ATEETREPTYFTCGCVIQNHVLKGAVKLYGQFPSPKTLRASAWLHDGENHERHRQPILVEGTATATEALYILLPTELSSPEGNRPRNYSATLTLASRDCYERFVCPVYDSGTPMGVLMNLTYLWYLGDYGAILKIYFGLFCGACVITRSLLLICGYYPPRE
On to B1, for which the US10 signal intensity relative to the maximum (HLA-G-bound US10) is 0.7 fold of max in assay [1], 0.2 fold of max in assay [2] and 1 fold of max in assay [3].

The record behind these values is article PMC11189632.
